The sequences below were run against Fyn (UniProt P06241) (assay: phosphorylation enrichment, bacterial display (enrichment ratio); higher = better substrate or ligand; peptides without Tyr show the background).
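Note: 11-residue human phosphosite peptides and single-mutation variants displayed on the E. coli surface, counted by deep sequencing, each peptide's frequency after selection divided by its frequency in the unselected input library; frequency after pTyr selection over input frequency; kinase dosed for 20-30% of maximal phosphorylation in three min.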

Sequence of Fyn (P06241 whole entry, looked up): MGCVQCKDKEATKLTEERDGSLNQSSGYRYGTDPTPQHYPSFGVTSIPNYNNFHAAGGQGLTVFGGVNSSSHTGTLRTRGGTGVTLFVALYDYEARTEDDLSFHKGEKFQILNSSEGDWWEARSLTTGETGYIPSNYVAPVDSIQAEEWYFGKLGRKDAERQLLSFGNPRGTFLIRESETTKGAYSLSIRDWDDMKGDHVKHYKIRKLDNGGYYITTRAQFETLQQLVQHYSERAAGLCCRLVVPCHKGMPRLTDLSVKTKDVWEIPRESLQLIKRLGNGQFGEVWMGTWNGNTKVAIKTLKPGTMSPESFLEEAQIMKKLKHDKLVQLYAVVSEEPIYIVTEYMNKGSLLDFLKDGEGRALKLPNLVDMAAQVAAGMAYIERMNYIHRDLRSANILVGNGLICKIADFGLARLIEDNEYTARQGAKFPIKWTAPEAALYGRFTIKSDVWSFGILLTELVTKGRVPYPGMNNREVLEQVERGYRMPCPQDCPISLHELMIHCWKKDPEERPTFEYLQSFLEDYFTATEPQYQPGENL

Sequence | phosphorylation enrichment
VEDHDYEGGIG [TKT_Y564_Y563D] | 0.518
RGKDSYETSKL [SPP1_Y225_Q229K] | 0.695
ARSHIYTFSSC [MEFV_Y741_A744S] | 1.3
QLPRGYISIPV [BAG3_Y205] | 0.839
NKVFTYIFIME [SCN4A_Y1074_D1069N] | 0.46
YMKEPYIQSRF [HIPK4_Y175_V171M] | 0.461
KDHPDYKFQAR [SOX10_Y171_P175A_YF] | 0.458
CEHRGSLFLAI [TEK_Y897_Y897S_YF] | 0.427
GRPLFYWLTGC [LYZL6_Y140] | 0.407
MSRNLYSGDCF [DDR2_Y736_Y740C_YF] | 1.71
RGLQVYHRRNA [LRP2_Y2010] | 0.964
EEVPLYESATT [DCC_Y809_G805E] | 1.07
ACCLLYCGDVV [TUBA4A_Y319_R320C] | 1.1
KVMANYVYKAG [MAML2_Y513_M514V] | 0.339
VLTSKYRGGGG [HBA1_Y141] | 0.366
TVHCDYLNIPH [TAF1L_Y1385] | 0.464
CSEEMYRLMLQ [RET_Y981] | 0.606
PSQRRNVYYYS [PTEN_Y174_Y174N] | 0.837
EQKKFYNAMKK [SCN5A_Y1495_YF] | 0.325
FDGGCYEQLFV [MC4R_Y41_S36Y_YF] | 1.81
QFQEKYKQVEQ [HCN4_Y531_YF] | 0.564
APAHKYHGGGG [HBD_Y146_L142P] | 0.328
GRRNTYFASIA [ACADM_Y352_YF] | 0.551
TVFSDYLHPQY [CCPG1_Y569] | 0.43
KKCTRYIDCDR [ASPA_Y64_L69R] | 0.323
TILEHYRRTHC [MYBPC3_Y1119_V1115I] | 0.378
LSVEIYDRREF [ITGB7_Y753_YF] | 0.946
DEGVNYFMSKG [FBXO8_Y156] | 0.422
LLSISYVGCSL [ADGRD1_Y571_S567L] | 0.98

Each sequence was assayed against EPHB1 (UniProt P54762) in the same assay as above.
Sequence of EPHB1 (P54762 whole entry, looked up): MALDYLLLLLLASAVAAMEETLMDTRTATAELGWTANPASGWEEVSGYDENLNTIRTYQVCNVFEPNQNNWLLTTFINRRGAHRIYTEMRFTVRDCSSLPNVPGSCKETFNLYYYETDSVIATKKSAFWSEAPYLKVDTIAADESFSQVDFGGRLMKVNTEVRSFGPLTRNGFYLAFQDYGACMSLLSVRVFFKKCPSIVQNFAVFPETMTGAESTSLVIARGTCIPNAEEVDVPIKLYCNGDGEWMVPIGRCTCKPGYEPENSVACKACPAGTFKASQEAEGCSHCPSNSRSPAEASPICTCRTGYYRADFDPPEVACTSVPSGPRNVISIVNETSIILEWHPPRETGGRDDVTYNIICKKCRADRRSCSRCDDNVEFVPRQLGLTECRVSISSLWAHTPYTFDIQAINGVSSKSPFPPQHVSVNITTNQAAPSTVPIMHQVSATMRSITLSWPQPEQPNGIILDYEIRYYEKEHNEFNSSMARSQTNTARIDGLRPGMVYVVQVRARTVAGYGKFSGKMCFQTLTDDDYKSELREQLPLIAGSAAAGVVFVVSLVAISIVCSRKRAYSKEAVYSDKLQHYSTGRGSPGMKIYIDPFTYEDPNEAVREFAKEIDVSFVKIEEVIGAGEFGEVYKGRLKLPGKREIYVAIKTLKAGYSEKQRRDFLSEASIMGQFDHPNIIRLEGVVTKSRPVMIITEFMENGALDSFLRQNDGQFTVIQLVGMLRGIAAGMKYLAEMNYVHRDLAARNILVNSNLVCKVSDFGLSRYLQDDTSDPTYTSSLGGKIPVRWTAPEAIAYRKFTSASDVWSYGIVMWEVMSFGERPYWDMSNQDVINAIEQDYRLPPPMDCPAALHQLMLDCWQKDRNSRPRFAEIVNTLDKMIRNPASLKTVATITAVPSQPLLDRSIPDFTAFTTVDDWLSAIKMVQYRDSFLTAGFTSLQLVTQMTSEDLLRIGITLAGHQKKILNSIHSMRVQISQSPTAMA

Sequence | phosphorylation enrichment
VEDHDYEGGIG [TKT_Y564_Y563D] | 0.737
RGKDSYETSKL [SPP1_Y225_Q229K] | 0.983
ARSHIYTFSSC [MEFV_Y741_A744S] | 0.519
QLPRGYISIPV [BAG3_Y205] | 0.698
NKVFTYIFIME [SCN4A_Y1074_D1069N] | 0.685
YMKEPYIQSRF [HIPK4_Y175_V171M] | 0.364
KDHPDYKFQAR [SOX10_Y171_P175A_YF] | 0.409
CEHRGSLFLAI [TEK_Y897_Y897S_YF] | 0.55
GRPLFYWLTGC [LYZL6_Y140] | 0.686
MSRNLYSGDCF [DDR2_Y736_Y740C_YF] | 2.02
RGLQVYHRRNA [LRP2_Y2010] | 0.755
EEVPLYESATT [DCC_Y809_G805E] | 2.19
ACCLLYCGDVV [TUBA4A_Y319_R320C] | 9.94
KVMANYVYKAG [MAML2_Y513_M514V] | 0.395
VLTSKYRGGGG [HBA1_Y141] | 0.475
TVHCDYLNIPH [TAF1L_Y1385] | 3.02
CSEEMYRLMLQ [RET_Y981] | 0.695
PSQRRNVYYYS [PTEN_Y174_Y174N] | 0.397
EQKKFYNAMKK [SCN5A_Y1495_YF] | 0.299
FDGGCYEQLFV [MC4R_Y41_S36Y_YF] | 1.09
QFQEKYKQVEQ [HCN4_Y531_YF] | 0.663
APAHKYHGGGG [HBD_Y146_L142P] | 0.288
GRRNTYFASIA [ACADM_Y352_YF] | 0.346
TVFSDYLHPQY [CCPG1_Y569] | 0.727
KKCTRYIDCDR [ASPA_Y64_L69R] | 0.402
TILEHYRRTHC [MYBPC3_Y1119_V1115I] | 0.465
LSVEIYDRREF [ITGB7_Y753_YF] | 0.428
DEGVNYFMSKG [FBXO8_Y156] | 0.457
LLSISYVGCSL [ADGRD1_Y571_S567L] | 0.888

The sequences below were run against FGFR3 (UniProt P22607) in the same assay as above.
Sequence of FGFR3 (P22607 whole entry, looked up): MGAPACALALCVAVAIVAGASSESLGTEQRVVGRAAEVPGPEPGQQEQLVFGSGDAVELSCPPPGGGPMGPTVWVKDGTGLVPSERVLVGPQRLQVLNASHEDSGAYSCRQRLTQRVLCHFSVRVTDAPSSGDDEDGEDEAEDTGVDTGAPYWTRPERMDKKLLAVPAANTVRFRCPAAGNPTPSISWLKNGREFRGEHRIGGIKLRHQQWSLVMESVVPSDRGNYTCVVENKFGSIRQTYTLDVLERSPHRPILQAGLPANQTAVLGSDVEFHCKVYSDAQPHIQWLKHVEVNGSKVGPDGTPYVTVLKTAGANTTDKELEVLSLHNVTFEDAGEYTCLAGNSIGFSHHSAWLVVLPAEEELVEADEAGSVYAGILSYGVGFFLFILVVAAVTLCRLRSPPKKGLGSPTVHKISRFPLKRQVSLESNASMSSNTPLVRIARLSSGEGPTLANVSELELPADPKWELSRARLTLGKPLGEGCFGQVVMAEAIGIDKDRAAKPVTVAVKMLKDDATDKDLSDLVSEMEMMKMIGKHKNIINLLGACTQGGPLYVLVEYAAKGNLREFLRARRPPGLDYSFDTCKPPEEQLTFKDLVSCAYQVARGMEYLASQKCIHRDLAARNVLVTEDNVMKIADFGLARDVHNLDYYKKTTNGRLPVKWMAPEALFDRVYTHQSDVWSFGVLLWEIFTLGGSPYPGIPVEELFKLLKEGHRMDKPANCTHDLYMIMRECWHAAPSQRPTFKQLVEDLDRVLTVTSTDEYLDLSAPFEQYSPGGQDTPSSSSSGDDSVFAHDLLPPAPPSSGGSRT

Sequence | phosphorylation enrichment
VEDHDYEGGIG [TKT_Y564_Y563D] | 0.874
RGKDSYETSKL [SPP1_Y225_Q229K] | 0.788
ARSHIYTFSSC [MEFV_Y741_A744S] | 0.681
QLPRGYISIPV [BAG3_Y205] | 0.744
NKVFTYIFIME [SCN4A_Y1074_D1069N] | 0.857
YMKEPYIQSRF [HIPK4_Y175_V171M] | 0.623
KDHPDYKFQAR [SOX10_Y171_P175A_YF] | 0.489
CEHRGSLFLAI [TEK_Y897_Y897S_YF] | 0.725
GRPLFYWLTGC [LYZL6_Y140] | 0.836
MSRNLYSGDCF [DDR2_Y736_Y740C_YF] | 0.968
RGLQVYHRRNA [LRP2_Y2010] | 0.889
EEVPLYESATT [DCC_Y809_G805E] | 0.878
ACCLLYCGDVV [TUBA4A_Y319_R320C] | 1.23
KVMANYVYKAG [MAML2_Y513_M514V] | 0.452
VLTSKYRGGGG [HBA1_Y141] | 0.468
TVHCDYLNIPH [TAF1L_Y1385] | 3.97
CSEEMYRLMLQ [RET_Y981] | 0.853
PSQRRNVYYYS [PTEN_Y174_Y174N] | 1.41
EQKKFYNAMKK [SCN5A_Y1495_YF] | 0.339
FDGGCYEQLFV [MC4R_Y41_S36Y_YF] | 1.33
QFQEKYKQVEQ [HCN4_Y531_YF] | 0.706
APAHKYHGGGG [HBD_Y146_L142P] | 0.423
GRRNTYFASIA [ACADM_Y352_YF] | 0.507
TVFSDYLHPQY [CCPG1_Y569] | 0.723
KKCTRYIDCDR [ASPA_Y64_L69R] | 0.542
TILEHYRRTHC [MYBPC3_Y1119_V1115I] | 0.619
LSVEIYDRREF [ITGB7_Y753_YF] | 0.824
DEGVNYFMSKG [FBXO8_Y156] | 0.926
LLSISYVGCSL [ADGRD1_Y571_S567L] | 1.43

These sequences were tested against FGFR1 (UniProt P11362) in the same assay as above.
Sequence of FGFR1 (P11362 whole entry, looked up): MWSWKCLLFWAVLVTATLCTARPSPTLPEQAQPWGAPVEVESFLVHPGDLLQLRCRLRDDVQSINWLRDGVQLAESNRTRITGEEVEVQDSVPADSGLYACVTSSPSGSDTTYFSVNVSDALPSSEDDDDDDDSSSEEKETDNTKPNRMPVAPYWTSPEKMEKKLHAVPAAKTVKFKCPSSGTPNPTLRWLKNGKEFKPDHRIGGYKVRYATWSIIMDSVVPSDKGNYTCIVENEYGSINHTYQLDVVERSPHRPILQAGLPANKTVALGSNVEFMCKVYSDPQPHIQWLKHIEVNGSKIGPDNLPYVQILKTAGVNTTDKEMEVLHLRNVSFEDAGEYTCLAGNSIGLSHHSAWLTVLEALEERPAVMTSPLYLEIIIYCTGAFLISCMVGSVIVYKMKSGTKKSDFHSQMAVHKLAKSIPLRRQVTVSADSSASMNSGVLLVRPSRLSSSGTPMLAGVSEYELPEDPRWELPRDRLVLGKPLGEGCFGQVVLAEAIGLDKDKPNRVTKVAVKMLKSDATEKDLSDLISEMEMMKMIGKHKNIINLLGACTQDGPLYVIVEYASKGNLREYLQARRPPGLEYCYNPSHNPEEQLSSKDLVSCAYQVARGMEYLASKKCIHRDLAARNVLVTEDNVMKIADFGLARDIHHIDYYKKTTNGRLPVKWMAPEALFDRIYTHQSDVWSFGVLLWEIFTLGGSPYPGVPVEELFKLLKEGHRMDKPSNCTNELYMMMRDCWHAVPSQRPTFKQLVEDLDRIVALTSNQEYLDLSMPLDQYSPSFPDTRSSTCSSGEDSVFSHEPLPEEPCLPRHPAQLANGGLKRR

Sequence | phosphorylation enrichment
VEDHDYEGGIG [TKT_Y564_Y563D] | 0.571
RGKDSYETSKL [SPP1_Y225_Q229K] | 0.613
ARSHIYTFSSC [MEFV_Y741_A744S] | 0.547
QLPRGYISIPV [BAG3_Y205] | 0.482
NKVFTYIFIME [SCN4A_Y1074_D1069N] | 0.507
YMKEPYIQSRF [HIPK4_Y175_V171M] | 0.611
KDHPDYKFQAR [SOX10_Y171_P175A_YF] | 0.466
CEHRGSLFLAI [TEK_Y897_Y897S_YF] | 0.501
GRPLFYWLTGC [LYZL6_Y140] | 0.533
MSRNLYSGDCF [DDR2_Y736_Y740C_YF] | 0.793
RGLQVYHRRNA [LRP2_Y2010] | 1.1
EEVPLYESATT [DCC_Y809_G805E] | 0.487
ACCLLYCGDVV [TUBA4A_Y319_R320C] | 1.13
KVMANYVYKAG [MAML2_Y513_M514V] | 0.398
VLTSKYRGGGG [HBA1_Y141] | 0.332
TVHCDYLNIPH [TAF1L_Y1385] | 6.63
CSEEMYRLMLQ [RET_Y981] | 0.921
PSQRRNVYYYS [PTEN_Y174_Y174N] | 1.36
EQKKFYNAMKK [SCN5A_Y1495_YF] | 0.394
FDGGCYEQLFV [MC4R_Y41_S36Y_YF] | 1.05
QFQEKYKQVEQ [HCN4_Y531_YF] | 0.699
APAHKYHGGGG [HBD_Y146_L142P] | 0.37
GRRNTYFASIA [ACADM_Y352_YF] | 0.439
TVFSDYLHPQY [CCPG1_Y569] | 0.699
KKCTRYIDCDR [ASPA_Y64_L69R] | 0.417
TILEHYRRTHC [MYBPC3_Y1119_V1115I] | 0.511
LSVEIYDRREF [ITGB7_Y753_YF] | 0.498
DEGVNYFMSKG [FBXO8_Y156] | 0.862
LLSISYVGCSL [ADGRD1_Y571_S567L] | 1.1

From the supplement of paper PMC10065799, “High-throughput profiling of sequence recognition by tyrosine kinases and SH2 domains using bacterial peptide display” (eLife, 2023)
